Source: US20200157236A1 (CELLDEX THERAPEUTICS, published 2020)
Where a chain is given by its changes, count along the chain named.

B1: Ab384 (antibody, V domains shown)
VH: EVQLVQSGAEVKKPGSSVKLSCKASGYTFTSYWMHWVRQAPGQGLEWIGYIKPSSGYTKYNQKFKDKATLTADKSTSTAYMELSSLRSEDTAVYYCARDYYGSSSWFAYWGQGTLVTVSS
VL: EIVMTQSPAFMSVTVGEKVTITCKASQNVGTNVAWYQQKPDQSPKALIYSASYRYSGVPSRFSGSGSGTDFTLTISSLEAEDAATYYCQQYNSYPYMYTFGQGTKLEIK
notes: humanized
B2: Ab420 (antibody, V domains shown)
VH: B1 VH
VL: EIVMTQSQATLSTSPGERATLSCKASQNVGTNVAWYQQKPGQAPRALIYSASYRYSGVPARFSGSGSGTDFTLTISSVEPEDFAVYYCQQYNSYPYMYTFGQGTKLEIK
notes: humanized
B3: Ab378 (antibody, V domains shown)
VH: B1 VH with S16T, P41R, G44R, N61A, K65Q, D66E, K67R, A68V
VL: B1 VL
notes: humanized
B4: Ab370 (antibody, V domains shown)
VH: B1 VH with S16A, N61A, F64L, K65Q, D66G, K67R, A68V, S84R, E89D
VL: B1 VL with E1D, P8Q, S43A
notes: humanized
B5: Ab353 (antibody, V domains shown)
VH: B1 VH with S16T, Y32S, W33A, H35Q, R38K
VL: B1 VL with M11L, V15P, S43A
notes: humanized
B6: Ab374 (antibody, V domains shown)
VH: B1 VH with T30S, R38K, N61A, K65Q, D66G, K67R, A68V
VL: B1 VL with E1D, P8Q, S43A
notes: humanized
B7: Ab368 (antibody, V domains shown)
VH: B1 VH with S16A, S84R, E89D
VL: B1 VL with E1D, P8Q, S43A
notes: humanized
B8: Ab366 (antibody, V domains shown)
VH: B1 VH with S16T, P41R, G44R, N61A, K65Q, D66E, K67R, A68V
VL: B1 VL with E1D, P8Q, S43A
notes: humanized
B9: Ab362 (antibody, V domains shown)
VH: B1 VH with T30S, R38K, N61A, K65Q, D66G, K67R, A68V
VL: B1 VL with M11L, V15P, S43A
notes: humanized
B10: Ab361 (antibody, V domains shown)
VH: B1 VH with L20V, T30S
VL: B1 VL with M11L, V15P, S43A
notes: humanized
B11: Ab365 (antibody, V domains shown)
VH: B1 VH with S16T, Y32S, W33A, H35Q, R38K
VL: B1 VL with E1D, P8Q, S43A
notes: humanized
B12: Ab354 (antibody, V domains shown)
VH: B1 VH with S16T, P41R, G44R, N61A, K65Q, D66E, K67R, A68V
VL: B1 VL with M11L, V15P, S43A
notes: humanized
B13: Ab382 (antibody, V domains shown)
VH: B1 VH with S16A, N61A, F64L, K65Q, D66G, K67R, A68V, S84R, E89D
VL: B1 VL
notes: humanized
B14: Ab380 (antibody, V domains shown)
VH: B1 VH with S16A, S84R, E89D
VL: B1 VL
notes: humanized
B15: Ab379 (antibody, V domains shown)
VH: B1 VH with E1Q, K12A, S16A, R38K, S84R, E89D
VL: B1 VL
notes: humanized
B16: Ab373 (antibody, V domains shown)
VH: B1 VH with L20V, T30S
VL: B1 VL with E1D, P8Q, S43A
notes: humanized
B17: Ab359 (antibody, V domains shown)
VH: B1 VH with E1Q, K12A, R38K
VL: B1 VL with M11L, V15P, S43A
notes: humanized
B18: Ab351 (antibody, V domains shown)
VH: B1 VH with E1Q, K12A, S16T, R38K, A68V
VL: B1 VL with M11L, V15P, S43A
notes: humanized
B19: Ab371 (antibody, V domains shown)
VH: B1 VH with E1Q, K12A, R38K
VL: B1 VL with E1D, P8Q, S43A
notes: humanized
B20: Ab385 (antibody, V domains shown)
VH: B1 VH with L20V, T30S
VL: B1 VL
notes: humanized
B21: Ab386 (antibody, V domains shown)
VH: B1 VH with T30S, R38K, N61A, K65Q, D66G, K67R, A68V
VL: B1 VL
notes: humanized
B22: Ab389 (antibody, V domains shown)
VH: B1 VH with S16T, Y32S, W33A, H35Q, R38K
VL: B2 VL with Q8P
notes: humanized
B23: Ab356 (antibody, V domains shown)
VH: B1 VH with S16A, S84R, E89D
VL: B1 VL with M11L, V15P, S43A
notes: humanized
B24: Ab360 (antibody, V domains shown)
VH: B1 VH
VL: B1 VL with M11L, V15P, S43A
notes: humanized
B25: Ab357 (antibody, V domains shown)
VH: B1 VH with K12A, S16A, S84R, E89D
VL: B1 VL with M11L, V15P, S43A
notes: humanized
B26: Ab358 (antibody, V domains shown)
VH: B1 VH with S16A, N61A, F64L, K65Q, D66G, K67R, A68V, S84R, E89D
VL: B1 VL with M11L, V15P, S43A
notes: humanized
B27: Ab376 (antibody, V domains shown)
VH: B1 VH with A9P, S16T, P41R, G44R, K67R
VL: B1 VL
notes: humanized
B28: Ab391 (antibody, V domains shown)
VH: B1 VH with E1Q, K12A, S16A, R38K, S84R, E89D
VL: B2 VL with Q8P
notes: humanized
B29: Ab388 (antibody, V domains shown)
VH: B1 VH with A9P, S16T, P41R, G44R, K67R
VL: B2 VL with Q8P
notes: humanized
B30: Ab377 (antibody, V domains shown)
VH: B1 VH with S16T, Y32S, W33A, H35Q, R38K
VL: B1 VL
notes: humanized
B31: Ab390 (antibody, V domains shown)
VH: B1 VH with S16T, P41R, G44R, N61A, K65Q, D66E, K67R, A68V
VL: B2 VL with Q8P
notes: humanized
B32: Ab363 (antibody, V domains shown)
VH: B1 VH with E1Q, K12A, S16T, R38K, A68V
VL: B1 VL with E1D, P8Q, S43A
notes: humanized
B33: Ab381 (antibody, V domains shown)
VH: B1 VH with K12A, S16A, S84R, E89D
VL: B1 VL
notes: humanized
B34: Ab372 (antibody, V domains shown)
VH: B1 VH
VL: B1 VL with E1D, P8Q, S43A
notes: humanized
B35: Ab364 (antibody, V domains shown)
VH: B1 VH with A9P, S16T, P41R, G44R, K67R
VL: B1 VL with E1D, P8Q, S43A
notes: humanized
B36: Ab367 (antibody, V domains shown)
VH: B1 VH with E1Q, K12A, S16A, R38K, S84R, E89D
VL: B1 VL with E1D, P8Q, S43A
notes: humanized
B37: Ab383 (antibody, V domains shown)
VH: B1 VH with E1Q, K12A, R38K
VL: B1 VL
notes: humanized
B38: Ab369 (antibody, V domains shown)
VH: B1 VH with K12A, S16A, S84R, E89D
VL: B1 VL with E1D, P8Q, S43A
notes: humanized
B39: Ab387 (antibody, V domains shown)
VH: B1 VH with E1Q, K12A, S16T, R38K, A68V
VL: B2 VL with Q8P
notes: humanized
B40: Ab375 (antibody, V domains shown)
VH: B1 VH with E1Q, K12A, S16T, R38K, A68V
VL: B1 VL
notes: humanized

target: T1, purified ALK protein (BLitz, Table 20) (Homo sapiens (Human), UniProt Q9UM73 19-1038, limits assumed); experiment: BLI (BLitz), mAb on Protein A tip, purified ALK in solution
T1 construct: also called purified ALK proteins
Experimental: Kinetic measurements of the monovalent affinity of the 96 humanized ALK antibody variants (Ab351-Ab446) were collected. Affinity ranking was performed using a BLitz® System (ForteBio, Menlo Park, Calif.). Humanized anti-ALK antibodies were immobilized at 0.5 mg/mL using Protein A tips. Once baseline stability was ensured, purified ALK proteins at 70 μg/mL were added. The resulting kinetic data were fit to a single binding site equation, from which the quoted monovalent KD values were derived.

T1 sequence (Q9UM73 19-1038 limits assumed): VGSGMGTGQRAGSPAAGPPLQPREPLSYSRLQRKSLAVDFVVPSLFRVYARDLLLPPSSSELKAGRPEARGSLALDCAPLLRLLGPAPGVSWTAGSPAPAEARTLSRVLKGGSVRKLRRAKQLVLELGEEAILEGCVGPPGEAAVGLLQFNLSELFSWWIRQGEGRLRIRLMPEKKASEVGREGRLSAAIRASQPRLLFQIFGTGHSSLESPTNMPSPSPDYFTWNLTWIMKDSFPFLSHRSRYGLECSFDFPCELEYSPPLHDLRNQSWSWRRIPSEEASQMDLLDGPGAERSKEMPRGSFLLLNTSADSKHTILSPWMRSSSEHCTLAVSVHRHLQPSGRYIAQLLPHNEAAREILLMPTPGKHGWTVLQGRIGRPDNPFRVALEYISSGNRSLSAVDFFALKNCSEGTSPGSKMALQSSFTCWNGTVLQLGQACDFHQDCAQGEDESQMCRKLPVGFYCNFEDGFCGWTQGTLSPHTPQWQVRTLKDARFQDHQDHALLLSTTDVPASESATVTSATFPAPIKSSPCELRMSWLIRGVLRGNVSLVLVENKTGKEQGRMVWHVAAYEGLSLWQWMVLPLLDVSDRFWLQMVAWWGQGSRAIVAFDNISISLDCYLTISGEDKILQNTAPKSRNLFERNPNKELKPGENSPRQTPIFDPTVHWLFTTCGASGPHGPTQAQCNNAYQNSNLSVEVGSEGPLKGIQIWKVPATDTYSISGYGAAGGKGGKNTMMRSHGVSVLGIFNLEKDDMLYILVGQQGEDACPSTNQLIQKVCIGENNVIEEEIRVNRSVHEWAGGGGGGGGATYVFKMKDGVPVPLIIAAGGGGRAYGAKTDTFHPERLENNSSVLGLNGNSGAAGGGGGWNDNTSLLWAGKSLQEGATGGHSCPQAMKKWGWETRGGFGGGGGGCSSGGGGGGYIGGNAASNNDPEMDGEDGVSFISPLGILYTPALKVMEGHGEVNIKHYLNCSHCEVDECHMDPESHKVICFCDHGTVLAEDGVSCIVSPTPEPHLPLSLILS

B1 and B2 are within 1.5-fold of each other in Kd: 201 nM for the first, 233 nM for the second.

Going from B3 to B4, the Kd rises from 167 nM to 2530 nM (15-fold).

Compared with B5, B6 is 1.5-fold lower in Kd: 384 nM for the first, 253 nM for the second.

B7 and B8 are within 1.5-fold of each other in Kd: 198 nM for the first, 219 nM for the second.

B9 and B10 are within 1.5-fold of each other in Kd: 149 nM for the first, 153 nM for the second.

Going from B11 to B12, the Kd falls from 1490 nM to 133 nM (11-fold).

B13 and B14 are the same in Kd: 141 nM for the first, 141 nM for the second.

Going from B15 to B16, the Kd rises from 118 nM to 280 nM (2.4-fold). The first binds more tightly here.

B17 and B18 are within 1.5-fold of each other in Kd: 100 nM for the first, 120 nM for the second.

Going from B19 to B20, the Kd rises from 130 nM to 626 nM (4.8-fold).

First: B21
Second: B22
The Kd of the first is 6-fold lower: 257 nM for the first, 1550 nM for the second. The first binds more tightly here.

B23 and B24 are within 1.5-fold of each other in Kd: 128 nM for the first, 137 nM for the second.

B25 and B26 are within 1.5-fold of each other in Kd: 147 nM for the first, 118 nM for the second.

First: B27
Second: B28
The Kd of the first is 1.7-fold lower: 103 nM for the first, 175 nM for the second.

First: B29
Second: B30
The Kd of the first is 8.6-fold lower: 108 nM for the first, 927 nM for the second.

Going from B31 to B32, the Kd falls from 288 nM to 119 nM (2.4-fold).

B33 and B34 are within 1.5-fold of each other in Kd: 180 nM for the first, 188 nM for the second.

B35 and B36 are within 1.5-fold of each other in Kd: 128 nM for the first, 114 nM for the second.

Going from B37 to B38, the Kd rises from 132 nM to 210 nM (1.6-fold).

B39 and B40 are within 1.5-fold of each other in Kd: 158 nM for the first, 140 nM for the second.
